No end group written: not given here.
What was measured:
Assay in all cases: Kinase Profiling Assay
Assay type in all cases: biochemical
Conditions in all cases: peptide 100 μM
[1] = target: T1, KDR(h) (Homo sapiens, UniProt P35968)
T1 construct: purchased Millipore
In short: (§1)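 Specificity of MK2 inhibitory peptides is assessed against a panel of 266 human kinases. Kinase transfers a radiolabeled phosphate from ATP onto a positively charged substrate, which is trapped on a negatively charged filter and quantified by scintillation counting against full-activity control; duplicate determinations.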

[2] = target: cKit(D816V)(h) (Homo sapiens, UniProt P10721, D816V)
In short: as §1

[3] = target: T2, Met(M1268T)(h) (Homo sapiens, UniProt P08581, M1250T)
T2 construct: purchased Millipore
In short: as §1

[4] = target: PRK2(h) (Homo sapiens, UniProt Q16513)
In short: as §1

[5] = target: T3, SGK3(h) (Homo sapiens, UniProt Q96BR1)
T3 construct: purchased Millipore
T3 sequence (Q96BR1 1-496): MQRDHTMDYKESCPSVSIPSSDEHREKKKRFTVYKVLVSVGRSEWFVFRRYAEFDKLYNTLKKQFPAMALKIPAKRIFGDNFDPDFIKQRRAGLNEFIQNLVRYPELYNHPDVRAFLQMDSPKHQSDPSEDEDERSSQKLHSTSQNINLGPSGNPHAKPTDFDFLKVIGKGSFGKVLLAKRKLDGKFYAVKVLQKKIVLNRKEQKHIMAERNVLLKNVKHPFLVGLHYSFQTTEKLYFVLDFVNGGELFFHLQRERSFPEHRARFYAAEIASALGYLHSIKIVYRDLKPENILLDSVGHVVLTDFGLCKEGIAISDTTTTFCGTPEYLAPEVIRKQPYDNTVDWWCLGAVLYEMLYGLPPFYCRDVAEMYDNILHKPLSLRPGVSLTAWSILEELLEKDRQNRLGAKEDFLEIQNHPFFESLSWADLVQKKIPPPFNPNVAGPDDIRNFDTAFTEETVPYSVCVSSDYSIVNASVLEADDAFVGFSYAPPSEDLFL
In short: as §1

[6] = target: T4, JNK3(h) (Homo sapiens, UniProt P53779)
T4 construct: purchased Millipore
In short: as §1

[7] = target: PKCδ(h) (Homo sapiens, UniProt Q05655)
In short: as §1

[8] = target: PKCθ(h) (Homo sapiens, UniProt Q04759)
In short: as §1

[9] = target: T5, GSK3β(h) (Homo sapiens, UniProt P49841)
T5 construct: purchased Millipore
In short: as §1

[10] = target: T6, EphB3(h) (Homo sapiens, UniProt P54753)
T6 sequence (P54753 34-998): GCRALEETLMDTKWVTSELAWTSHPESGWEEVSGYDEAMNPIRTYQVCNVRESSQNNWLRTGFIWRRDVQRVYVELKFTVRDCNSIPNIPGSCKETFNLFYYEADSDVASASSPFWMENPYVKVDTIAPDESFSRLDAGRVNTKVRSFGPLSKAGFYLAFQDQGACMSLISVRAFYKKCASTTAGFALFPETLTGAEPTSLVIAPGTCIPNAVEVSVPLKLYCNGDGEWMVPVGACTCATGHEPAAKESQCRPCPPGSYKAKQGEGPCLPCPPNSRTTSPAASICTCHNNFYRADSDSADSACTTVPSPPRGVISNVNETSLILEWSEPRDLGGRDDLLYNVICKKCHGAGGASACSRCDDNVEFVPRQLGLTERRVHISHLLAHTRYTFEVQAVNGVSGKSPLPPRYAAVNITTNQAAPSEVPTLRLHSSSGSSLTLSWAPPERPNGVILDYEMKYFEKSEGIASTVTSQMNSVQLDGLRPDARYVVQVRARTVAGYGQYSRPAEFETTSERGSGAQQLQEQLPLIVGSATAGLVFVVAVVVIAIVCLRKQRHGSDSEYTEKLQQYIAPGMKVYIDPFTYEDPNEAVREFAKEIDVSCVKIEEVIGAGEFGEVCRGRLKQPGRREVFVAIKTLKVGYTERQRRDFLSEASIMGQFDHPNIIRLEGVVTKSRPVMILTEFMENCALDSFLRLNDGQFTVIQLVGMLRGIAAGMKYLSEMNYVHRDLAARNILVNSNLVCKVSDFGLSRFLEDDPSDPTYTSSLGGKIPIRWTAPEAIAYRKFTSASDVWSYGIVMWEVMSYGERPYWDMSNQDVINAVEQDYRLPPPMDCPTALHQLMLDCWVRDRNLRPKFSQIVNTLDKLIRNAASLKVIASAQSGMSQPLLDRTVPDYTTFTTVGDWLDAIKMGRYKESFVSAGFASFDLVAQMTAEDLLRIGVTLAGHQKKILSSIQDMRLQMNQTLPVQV
In short: as §1

[11] = target: eEF-2K(h) (Homo sapiens, UniProt O00418)
In short: as §1

Sequence of PKCθ(h) (Q04759 whole entry): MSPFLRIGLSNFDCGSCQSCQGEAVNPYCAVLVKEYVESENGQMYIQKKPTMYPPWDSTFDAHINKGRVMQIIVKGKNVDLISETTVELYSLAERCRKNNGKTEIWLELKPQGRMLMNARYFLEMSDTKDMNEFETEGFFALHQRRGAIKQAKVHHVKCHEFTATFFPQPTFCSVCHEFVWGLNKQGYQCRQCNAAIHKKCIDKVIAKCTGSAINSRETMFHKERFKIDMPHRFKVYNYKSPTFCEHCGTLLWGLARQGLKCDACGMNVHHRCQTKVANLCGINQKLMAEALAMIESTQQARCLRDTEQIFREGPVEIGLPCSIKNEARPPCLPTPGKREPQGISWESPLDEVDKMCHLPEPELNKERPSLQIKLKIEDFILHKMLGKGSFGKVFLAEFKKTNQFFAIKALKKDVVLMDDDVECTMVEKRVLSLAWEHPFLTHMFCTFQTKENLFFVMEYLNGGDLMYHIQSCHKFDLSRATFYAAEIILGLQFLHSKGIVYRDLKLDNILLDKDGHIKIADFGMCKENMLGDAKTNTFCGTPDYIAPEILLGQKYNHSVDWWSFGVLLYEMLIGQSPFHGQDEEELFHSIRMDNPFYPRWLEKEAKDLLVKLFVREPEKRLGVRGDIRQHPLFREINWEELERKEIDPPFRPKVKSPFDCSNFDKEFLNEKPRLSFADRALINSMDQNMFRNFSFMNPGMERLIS
Sequence of PRK2(h) (Q16513 whole entry): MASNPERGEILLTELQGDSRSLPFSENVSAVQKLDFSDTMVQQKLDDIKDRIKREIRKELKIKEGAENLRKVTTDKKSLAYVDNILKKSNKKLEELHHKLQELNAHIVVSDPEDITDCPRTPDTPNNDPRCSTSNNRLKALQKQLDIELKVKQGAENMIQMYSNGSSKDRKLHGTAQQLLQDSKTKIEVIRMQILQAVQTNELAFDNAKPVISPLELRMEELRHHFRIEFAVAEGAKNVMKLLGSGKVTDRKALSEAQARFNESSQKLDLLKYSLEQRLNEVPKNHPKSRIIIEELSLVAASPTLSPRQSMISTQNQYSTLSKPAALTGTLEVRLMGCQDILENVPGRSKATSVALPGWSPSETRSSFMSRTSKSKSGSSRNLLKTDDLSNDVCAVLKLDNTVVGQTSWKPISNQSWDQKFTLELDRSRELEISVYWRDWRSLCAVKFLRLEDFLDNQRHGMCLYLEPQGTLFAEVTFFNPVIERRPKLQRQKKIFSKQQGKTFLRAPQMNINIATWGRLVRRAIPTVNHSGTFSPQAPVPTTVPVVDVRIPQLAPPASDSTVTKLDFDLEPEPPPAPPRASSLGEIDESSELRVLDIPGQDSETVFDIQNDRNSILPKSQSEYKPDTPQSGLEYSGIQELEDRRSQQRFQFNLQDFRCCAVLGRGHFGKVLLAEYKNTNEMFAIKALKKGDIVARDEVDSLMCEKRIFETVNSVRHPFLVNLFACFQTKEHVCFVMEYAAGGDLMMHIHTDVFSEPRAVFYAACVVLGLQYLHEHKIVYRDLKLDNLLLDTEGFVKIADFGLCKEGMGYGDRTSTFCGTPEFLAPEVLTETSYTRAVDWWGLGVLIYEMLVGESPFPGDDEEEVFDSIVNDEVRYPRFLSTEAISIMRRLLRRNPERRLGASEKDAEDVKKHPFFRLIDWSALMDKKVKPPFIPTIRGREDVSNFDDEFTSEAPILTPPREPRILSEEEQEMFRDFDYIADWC
T4 sequence (P53779 whole entry): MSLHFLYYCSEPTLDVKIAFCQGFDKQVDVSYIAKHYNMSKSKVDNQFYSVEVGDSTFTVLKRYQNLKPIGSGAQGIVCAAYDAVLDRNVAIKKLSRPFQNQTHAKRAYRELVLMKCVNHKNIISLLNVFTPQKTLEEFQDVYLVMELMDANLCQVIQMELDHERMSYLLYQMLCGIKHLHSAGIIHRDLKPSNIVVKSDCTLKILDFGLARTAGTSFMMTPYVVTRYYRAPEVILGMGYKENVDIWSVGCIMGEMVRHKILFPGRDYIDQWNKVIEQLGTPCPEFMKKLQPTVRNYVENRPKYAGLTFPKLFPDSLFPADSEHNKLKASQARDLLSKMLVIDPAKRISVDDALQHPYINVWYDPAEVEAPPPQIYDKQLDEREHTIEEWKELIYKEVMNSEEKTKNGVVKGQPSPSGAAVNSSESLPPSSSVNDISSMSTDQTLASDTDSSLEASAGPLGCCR
T1 sequence (P35968 20-1356): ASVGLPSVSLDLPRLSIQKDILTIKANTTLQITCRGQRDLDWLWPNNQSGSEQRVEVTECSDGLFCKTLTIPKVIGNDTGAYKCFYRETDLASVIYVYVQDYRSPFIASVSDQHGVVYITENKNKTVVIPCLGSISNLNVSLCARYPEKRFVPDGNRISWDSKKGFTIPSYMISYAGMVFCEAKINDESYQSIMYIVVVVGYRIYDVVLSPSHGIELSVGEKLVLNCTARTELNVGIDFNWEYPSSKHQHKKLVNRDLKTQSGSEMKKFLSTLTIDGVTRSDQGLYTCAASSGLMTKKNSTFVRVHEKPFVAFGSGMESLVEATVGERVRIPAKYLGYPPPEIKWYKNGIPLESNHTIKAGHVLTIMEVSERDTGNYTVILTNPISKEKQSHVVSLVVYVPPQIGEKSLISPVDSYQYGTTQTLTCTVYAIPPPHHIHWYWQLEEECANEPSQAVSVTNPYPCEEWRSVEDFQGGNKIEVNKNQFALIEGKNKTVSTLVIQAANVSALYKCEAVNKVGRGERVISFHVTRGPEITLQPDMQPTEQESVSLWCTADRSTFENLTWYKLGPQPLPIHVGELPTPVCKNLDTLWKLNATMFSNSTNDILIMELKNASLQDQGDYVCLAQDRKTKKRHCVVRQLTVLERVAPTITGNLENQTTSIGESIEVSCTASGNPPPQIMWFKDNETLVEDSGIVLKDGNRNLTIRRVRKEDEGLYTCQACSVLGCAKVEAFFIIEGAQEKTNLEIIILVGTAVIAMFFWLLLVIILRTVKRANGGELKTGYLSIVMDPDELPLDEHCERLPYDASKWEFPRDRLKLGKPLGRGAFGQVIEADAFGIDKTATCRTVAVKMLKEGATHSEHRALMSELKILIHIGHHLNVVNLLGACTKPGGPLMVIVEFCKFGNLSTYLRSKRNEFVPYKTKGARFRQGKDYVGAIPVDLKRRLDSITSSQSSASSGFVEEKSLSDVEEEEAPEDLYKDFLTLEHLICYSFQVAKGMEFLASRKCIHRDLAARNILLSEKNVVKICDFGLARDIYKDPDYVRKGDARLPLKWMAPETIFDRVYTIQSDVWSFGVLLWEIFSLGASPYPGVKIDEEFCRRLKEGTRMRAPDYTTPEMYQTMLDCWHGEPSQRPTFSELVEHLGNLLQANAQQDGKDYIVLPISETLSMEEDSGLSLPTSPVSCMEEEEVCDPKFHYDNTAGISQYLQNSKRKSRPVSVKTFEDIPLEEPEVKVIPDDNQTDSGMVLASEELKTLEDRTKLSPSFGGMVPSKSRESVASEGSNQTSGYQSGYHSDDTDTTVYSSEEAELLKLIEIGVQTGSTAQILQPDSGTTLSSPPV
T5 sequence (P49841 whole entry): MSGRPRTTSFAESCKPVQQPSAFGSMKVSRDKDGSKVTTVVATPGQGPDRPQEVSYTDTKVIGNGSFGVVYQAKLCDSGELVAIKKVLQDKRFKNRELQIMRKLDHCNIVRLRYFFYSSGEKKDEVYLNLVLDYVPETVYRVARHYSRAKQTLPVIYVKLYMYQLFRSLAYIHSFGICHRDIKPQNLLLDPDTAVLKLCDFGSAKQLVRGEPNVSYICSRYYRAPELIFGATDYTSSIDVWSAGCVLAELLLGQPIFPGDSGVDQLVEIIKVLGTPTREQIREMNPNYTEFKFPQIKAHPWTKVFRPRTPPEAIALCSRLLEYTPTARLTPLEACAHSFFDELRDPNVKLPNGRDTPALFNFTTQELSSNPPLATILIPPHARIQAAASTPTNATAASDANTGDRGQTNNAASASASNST
Sequence of PKCδ(h) (Q05655 whole entry): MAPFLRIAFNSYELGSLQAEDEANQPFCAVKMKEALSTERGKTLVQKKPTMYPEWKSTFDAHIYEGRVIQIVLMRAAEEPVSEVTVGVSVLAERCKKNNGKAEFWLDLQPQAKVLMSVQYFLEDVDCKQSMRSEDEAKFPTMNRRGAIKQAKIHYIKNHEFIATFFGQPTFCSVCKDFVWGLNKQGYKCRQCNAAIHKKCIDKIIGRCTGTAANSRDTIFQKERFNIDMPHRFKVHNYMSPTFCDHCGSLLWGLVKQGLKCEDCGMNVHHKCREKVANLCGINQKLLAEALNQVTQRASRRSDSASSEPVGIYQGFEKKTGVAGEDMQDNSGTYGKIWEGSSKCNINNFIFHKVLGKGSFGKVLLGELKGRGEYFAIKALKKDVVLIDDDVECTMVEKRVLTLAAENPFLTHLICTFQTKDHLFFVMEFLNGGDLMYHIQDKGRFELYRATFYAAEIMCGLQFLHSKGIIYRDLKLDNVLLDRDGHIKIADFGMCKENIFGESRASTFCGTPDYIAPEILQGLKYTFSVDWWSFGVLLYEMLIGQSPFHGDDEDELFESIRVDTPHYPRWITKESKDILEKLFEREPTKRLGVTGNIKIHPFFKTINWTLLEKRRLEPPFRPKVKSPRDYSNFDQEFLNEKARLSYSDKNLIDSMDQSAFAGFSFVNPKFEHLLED

FAKLAARLYRKALARQLGVAA [MMI-0300]
% activity [1]: 101% | % activity [2]: 60% | % activity [3]: 255% | % activity [4]: 33% | % activity [5]: 10% | % activity [6]: 89% | % activity [7]: 101% | % activity [8]: 88% | % activity [9]: 205% | % activity [10]: 62% | % activity [11]: 91%

HRRIKAWLKKIKALARQLGVAA (Mammal) [MMI-0500]
% activity [1]: 15% | % activity [2]: 30% | % activity [3]: 239% | % activity [4]: 7% | % activity [5]: -3% | % activity [6]: 171% | % activity [7]: 61% | % activity [8]: 62% | % activity [9]: 238% | % activity [10]: 79% | % activity [11]: 43%

KAFAKLAARLYRKALARQLGVAA [MMI-0400]
% activity [1]: 94% | % activity [2]: 35% | % activity [3]: 265% | % activity [4]: 27% | % activity [5]: 8% | % activity [6]: 70% | % activity [7]: 90% | % activity [8]: 76% | % activity [9]: 202% | % activity [10]: 47% | % activity [11]: 43%

YARAAARQARAKALARQLGVAA [MMI-0100]
% activity [1]: 100% | % activity [4]: 72% | % activity [5]: 95%

YARAAARQARAKALNRQLGVA (Mammal) [MMI-0200]
% activity [1]: 110% | % activity [2]: 118% | % activity [3]: 143% | % activity [4]: 74% | % activity [5]: 58% | % activity [6]: 90% | % activity [7]: 101% | % activity [8]: 101% | % activity [9]: 132% | % activity [10]: 128%
